One data set deals with DMRT1 (mouse) (UniProt Q9QZ59). Description: competition. Conditions: 40-fold excess unlabeled SELF; EMSA: 10 mM Tris-HCl pH 7.9, 100 mM KCl, 10% glycerol, 5 mM MgCl2, 1 mM spermidine, 0.075% Triton-X-100, 1 mM DTT, 1 ug BSA, 0.1 ug dI-dC, 75 ng plasmid DNA, 0. For orientation: Mobility shift assays separate free from complexed probe on a gel.
The next data set deals with T1, DMRT5 (mouse) (UniProt A2A9A2).
T1 sequence: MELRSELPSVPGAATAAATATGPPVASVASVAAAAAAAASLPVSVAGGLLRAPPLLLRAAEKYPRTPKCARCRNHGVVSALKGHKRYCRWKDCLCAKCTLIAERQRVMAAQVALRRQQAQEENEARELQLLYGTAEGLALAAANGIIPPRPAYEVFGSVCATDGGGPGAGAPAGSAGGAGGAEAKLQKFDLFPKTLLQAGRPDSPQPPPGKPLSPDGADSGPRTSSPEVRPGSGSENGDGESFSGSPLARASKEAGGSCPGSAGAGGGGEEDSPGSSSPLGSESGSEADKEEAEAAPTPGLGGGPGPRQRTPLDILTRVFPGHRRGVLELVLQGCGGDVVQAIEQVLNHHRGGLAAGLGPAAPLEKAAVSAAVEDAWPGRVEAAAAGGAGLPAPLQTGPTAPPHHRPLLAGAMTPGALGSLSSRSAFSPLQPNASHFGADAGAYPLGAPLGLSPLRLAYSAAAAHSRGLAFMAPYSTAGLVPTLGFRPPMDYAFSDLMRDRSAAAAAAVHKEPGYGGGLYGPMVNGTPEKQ
Description: competition. To be noted: 40-fold excess unlabeled SELF; EMSA: 10 mM Tris-HCl pH 7.9, 100 mM KCl, 10% glycerol, 5 mM MgCl2, 1 mM spermidine, 0.075% Triton-X-100, 1 mM DTT, 1 ug BSA, 0.1 ug dI-dC, 75 ng plasmid DNA, 0.

DMRT1 (mouse), sequence (Q9QZ59 whole entry): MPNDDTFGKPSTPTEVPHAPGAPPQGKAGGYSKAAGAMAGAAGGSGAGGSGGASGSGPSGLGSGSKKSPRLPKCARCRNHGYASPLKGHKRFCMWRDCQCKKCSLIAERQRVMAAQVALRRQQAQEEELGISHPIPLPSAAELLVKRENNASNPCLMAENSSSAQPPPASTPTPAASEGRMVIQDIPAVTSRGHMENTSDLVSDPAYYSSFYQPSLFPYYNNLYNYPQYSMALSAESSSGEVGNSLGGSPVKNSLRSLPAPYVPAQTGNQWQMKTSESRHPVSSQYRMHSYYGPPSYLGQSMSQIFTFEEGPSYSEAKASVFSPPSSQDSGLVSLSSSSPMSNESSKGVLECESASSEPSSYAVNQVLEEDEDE

For “TCGAGATTTGATACATTGTTGC / TCGAGCAACAATGTATCAAATC [DMRT1 consensus (1RE, general gel shift)]”, the binding signal (relative to SELF) in the data set with DMRT1 (mouse) and with DMRT5 (mouse) was 1 in each case.

Source of the values: PMC1931443.
